Test results published in patent US20090011497 (published 2009).

Target: T1, hu-MPL (human, UniProt P40238)
T1 chain: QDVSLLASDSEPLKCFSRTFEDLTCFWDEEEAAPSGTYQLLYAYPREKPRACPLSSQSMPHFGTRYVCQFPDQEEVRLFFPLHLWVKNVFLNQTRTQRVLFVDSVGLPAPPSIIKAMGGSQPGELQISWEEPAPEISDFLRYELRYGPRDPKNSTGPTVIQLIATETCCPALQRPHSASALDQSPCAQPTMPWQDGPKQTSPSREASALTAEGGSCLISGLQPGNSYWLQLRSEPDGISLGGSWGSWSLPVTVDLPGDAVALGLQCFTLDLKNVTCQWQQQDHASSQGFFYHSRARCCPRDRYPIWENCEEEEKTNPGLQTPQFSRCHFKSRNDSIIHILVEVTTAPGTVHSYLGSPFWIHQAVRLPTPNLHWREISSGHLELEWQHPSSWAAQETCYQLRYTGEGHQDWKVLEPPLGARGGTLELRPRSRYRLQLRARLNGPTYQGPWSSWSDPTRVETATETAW
Assay: SPR

- Kd: 560 pM
Binder: YCDEGPTLKQWLVCLGLQ [TMP20]
